Results taken from US20110262445A1 (CEPHALON AUSTRALIA, published 2011).

Columns and labels:
human IL-12 [1] = biological target: T1, human IL-12 (human, UniProt P29460 23-328; P29459 23-219); experiment: SPR, IgG
T1 construct: Recombinant (Peprotech); FLAG-tagged IL-12 in the flow cytometry assays, biotinylated in the IL-12Rβ2 assay; also called hIL-12
T1 sequence 1: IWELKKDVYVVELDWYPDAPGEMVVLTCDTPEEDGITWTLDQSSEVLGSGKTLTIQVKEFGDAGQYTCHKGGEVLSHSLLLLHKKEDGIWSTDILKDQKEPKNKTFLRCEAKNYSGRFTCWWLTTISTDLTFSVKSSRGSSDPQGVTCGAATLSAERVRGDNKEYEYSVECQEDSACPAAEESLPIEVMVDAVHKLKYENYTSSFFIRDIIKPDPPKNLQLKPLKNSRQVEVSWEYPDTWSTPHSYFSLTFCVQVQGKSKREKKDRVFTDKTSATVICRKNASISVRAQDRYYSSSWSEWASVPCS
T1 sequence 2: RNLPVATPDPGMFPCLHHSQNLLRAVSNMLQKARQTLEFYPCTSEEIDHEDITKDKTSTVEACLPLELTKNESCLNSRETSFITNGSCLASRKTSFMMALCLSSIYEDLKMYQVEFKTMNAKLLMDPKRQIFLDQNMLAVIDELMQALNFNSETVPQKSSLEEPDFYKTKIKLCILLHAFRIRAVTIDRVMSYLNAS
Protocol: (§1) CU-A6 was converted to Antibody 183, CP-A6 was converted to Antibody 184 and AW-F2 was converted to Antibody 207 by addition of a human heavy chain Fc region (SEQ ID NO: 8) and a constant kappa light chain region (SEQ ID NO: 9). IgG molecules were expressed by co-transfecting the heavy and light chain construct for each antibody into HEK 293E cultures. The expressed IgGs were purified by affinity chromatography and gel exclusion and the resulting monomeric molecules were tested for IL-12 and IL-23 binding by SPR (TABLE 6). All three IgG variants retained binding activity against both analytes with a visible improvement in kd compared to the parental wild-type IgG. Based on this, it is reasonable to expect that scFv variants described in TABLE 4 could be converted to the IgG format and retain improved binding characteristics against IL-12 and IL-23.
(§2) Using a SPR 3000, Protein A was immobilized onto FC1 and FC2 (or alternatively FC3 and FC4) of a CM5 research grade sensor chip using amine coupling, giving approximately […] RU. FC1 was used a blank throughout the experiments. The experiments were run in HBS-P buffer (SPR). At a flow rate of 20 μl/min, 20 μl of 5 μg/mL of antibody was passed over FC2. IL-12, IL-23 or IL-12p40 (Peprotech) were passed over the surface of FC1 and FC2 at concentrations ranging from 66 nM to 2 nM. Regeneration of the surface was performed using 10 mM Glycine, pH 1.0. The sensorgram data from FC2 was subtracted from FC1 and a buffer only control. The curves were fitted using a 1:1 Langmuir equation to generate the kd, ka and KD values. All curves were fitted with a χ² of less then 2.0 where possible.

human IL-23 [2] = biological target: T2, human IL-23 (human, UniProt P29460 23-328; Q9NPF7 20-189); experiment: SPR, IgG
T2 construct: Recombinant (Ebioscience); HIS-tagged in flow cytometry, biotinylated in some assays; also called hIL-23; rhIL-23
T2 sequence 1: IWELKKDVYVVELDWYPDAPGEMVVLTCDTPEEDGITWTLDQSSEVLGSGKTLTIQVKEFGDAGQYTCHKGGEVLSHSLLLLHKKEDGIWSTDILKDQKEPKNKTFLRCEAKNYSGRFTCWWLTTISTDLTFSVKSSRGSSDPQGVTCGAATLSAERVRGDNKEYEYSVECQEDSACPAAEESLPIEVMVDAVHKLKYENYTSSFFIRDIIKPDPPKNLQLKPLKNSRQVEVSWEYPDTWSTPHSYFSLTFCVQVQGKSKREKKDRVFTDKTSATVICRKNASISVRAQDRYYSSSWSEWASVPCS
T2 sequence 2: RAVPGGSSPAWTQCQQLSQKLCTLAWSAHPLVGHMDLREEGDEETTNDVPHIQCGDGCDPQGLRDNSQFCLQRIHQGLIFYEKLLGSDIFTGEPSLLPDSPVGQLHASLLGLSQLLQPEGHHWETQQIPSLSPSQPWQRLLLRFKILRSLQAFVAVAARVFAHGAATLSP
Protocol: as §1, §2

human IL-23 [3] = biological target: T2, human IL-23; experiment: SPR, IgG; LOD estimated 1 × 10^-5 s^-1
human IL-12 [4] = biological target: T1, human IL-12; experiment: ELISA, SPR
human IL-23 [5] = biological target: T2, human IL-23; experiment: ELISA, SPR
human IL-12 [6] = biological target: T1, human IL-12; experiment: SPR, purified scFv
human IL-12 [7] = biological target: T1, human IL-12; experiment: SPR, purified scFv captured via FLAG
Outline: (§3)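 FLAG-tagged scFvs (10 nM) captured to ~50 RU on anti-FLAG CM5 surface; HBS-EP+, 30 °C or 35 °C. IL-12 (81–0.13 nM, five-fold) or IL-23 (81–1 nM, three-fold) injected 180 s at 60 μl/min, dissociation 300 s (10 min top concentration). Double-referenced 1:1 Langmuir fit for ka, kd, KD.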

human IL-23 [8] = biological target: T2, human IL-23; experiment: SPR, purified scFv captured via FLAG
Outline: as §3

human IL-23 [9] = biological target: T2, human IL-23; experiment: SPR screen, crude scFv captured via FLAG
Outline: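 Crude periplasmic FLAG-tagged scFvs were captured on an anti-FLAG surface (approx. 100 or 50 RU) in HBS-EP+ at 25 °C. IL-23 was injected for 120 s at 30 μl/min, with 200 s dissociation. Referenced sensorgrams were fitted to a 1:1 Langmuir model for ka, kd and KD.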

human IL-23 [10] = biological target: T2, human IL-23; experiment: SPR, purified scFv captured via FLAG; LOD estimated 1 × 10^-5 s^-1
Protocol: A number of the scFv variants presented in TABLE 4 were selected for full characterization of binding kinetics, encompassing a broad range of mutation profiles and binding affinities. Large-scale protein expressions were carried out for each scFv. The expressed scFvs were purified as monomeric proteins and tested for binding against IL-12 and IL-23 by SPR (TABLE 5).
Purified scFvs were subjected to full kinetic characterization using a BIAcore T100 biosensor (GE Healthcare). Approximately 10,000 RU of the proprietry FLAG-specific capture molecule was immobilized on a CM5 Series S Sensor chip, using standard amine coupling chemistry in flow cells (FC) 1 and FC2 (or alternatively FC3 and FC4) of the BIAcore T100 Biosensor. The running buffer used was HBS-EP+ (BIAcore) and interactions measured at 30° C. or 35° C. to promote differentiation of scFvs with very similiar kd values. Peak purified FLAG-tagged scFvs (prepared as described in the previous paragraph) were diluted to 10 nM in running buffer, and captured on FC2 at a flow rate of 10 μl/min in order to capture 50 RU of scFv (typically 60 sec was sufficient to capture this level of tagged scFv). After an appropriate stabilization period, the target, IL-12 or IL-23, were passed over FC1 and FC2 at a flow rate of 60 μl/min at concentrations ranging from 81 nM to 0.13 nM (using a five-fold dilution of IL-12) and 81 nM to 1 nM (using a three-fold dilution of IL-23). The contact time for association was 180 sec and dissociation measured for 10 mins for the highest concentration and 300 sec for all other concentrations in the series. The sensorgram data from FC2 was subtracted from FC1 and a buffer only control. The curves were fitted using a 1:1 Langmuir equation to generate the kₐ, kd and KD values.

B1: Antibody 183 (antibody, human IgG1, kappa, V domains shown)
VH: QVQLVQSGAEVKKPGASVKVSCKASGYTLTDYYLHWVRQAPGQGLEWMGWIDPENGDTEYAPKFQGRVTMTTDTSTSTAYMELRSLRSDDTAVYYCNANKELRYFDVWGQGAMVTVSS
VL: EIVMTQSPATLSVSPGERATLSCRASQSISINLHWYQQKPGQAPRLLIYFASQSISGIPARFFGSGSGTEFTLTISSLQSEDFAVYYCQQSNSFPLTFGGGTKVEIKR
notes: also called CU-A6 as IgG
Work on B1 yielded a Kd (human IL-12 [1]) of 0.065 nM, a koff (human IL-12 [1]) of 0.00027 s⁻¹ and a kon (human IL-12 [1]) of 4.1e+06 M⁻¹ s⁻¹. It also gave a Kd (human IL-23 [2]) of no more than 0.0027 nM, a kon (human IL-23 [2]) of 400000 M⁻¹ s⁻¹ and a koff (human IL-23 [3]) of less than 1e-05 s⁻¹.

B2: Antibody 50 (antibody, human IgG1, kappa, V domains shown)
VH: EVQLQQSGADLVRSGASIKLSCTASGFNIKDYYLHWVKQRPEQGLEWIGWIDPENGDTEYAPKFQGKATMTADTSSNTAYLQLSSLTSEDTAVYYCNANKELRYFDVWGAGTTVTVSS
VL: DIVLTQSPATLSVTPGDSVSLSCRASQSISINLHWYQQKSHESPRLLIKFASQSISGIPSRFSGYGSGTDFTLSINSVETEDFGRYFCQQSNSFPLTFGAGTKLELKR
notes: Optimized chimeric antibody (W94F, M34L, C95N)
B2: binds (human IL-12 [4]); binds (human IL-23 [5]).

B3: scFv AW-F2 (scFv)
scFv: QVQLVQSGAEVKKPGASVKVSCKASGYTFTDYYLHWVRQAPGQGLEWMGWIDPENGDTESAPKFQGRVTMTTDTSTSTAYMELRSLRSDDTAVYYCNANKELRYFDVWGQGTMVTVSSGGGGSGGGGSGGGGSEIVMTQSPATLSVSPGERATLSCRASQSISINLHWYQQKPGQAPRLLIYFASQSISGIPARFSGSGSGTEFTLTISSLQSEDFAVYYCQQSNSFPLTFGGGTKVEIKR
notes: scFv-80 variant: VH Y59S; not shown: proprietary C-terminal FLAG tag
For B3, the “fold affinity improvement compared to parental scFv-80” value (human IL-12 [6]) was 5 fold, the Kd (human IL-12 [7]) was 0.046 nM and the koff (human IL-12 [7]) was 0.0001 s⁻¹. For the same binder, the kon (human IL-12 [7]) was 2.2e+06 M⁻¹ s⁻¹, the kon (human IL-23 [8]) was 350000 M⁻¹ s⁻¹ and the koff (human IL-23 [9]) was 0.00025 s⁻¹. For the same binder, the koff (human IL-23 [10]) was less than 1e-05 s⁻¹.
